According to the supplement of paper PMC11316812:
± gives the standard deviation of the averaged measurements.

What was measured:
MCF7 = assay: percentage of EdU-negative (G0-arrested) nuclei per well, 72 h; higher = more G0 arrest; conditions: reference: sequence is the full UniProt precursor, the tested protein was the secreted form or ectodomain
hTERT-HMEC = assay: as above; conditions: reference: sequence is the full UniProt precursor, the tested protein was the secreted form or ectodomain
[1] = protein concentration 0.0225 µM
[2] = protein concentration 0.01925 µM
[3] = protein concentration 0.1925 µM
[4] = protein concentration 0.0242225 µM
[5] = protein concentration 0.242225 µM
[6] = protein concentration 0.0257143 µM
[7] = protein concentration 0.257143 µM
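Further: secreted proteins added to cultured cells, EdU pulse at the end, nuclei found by Hoechst imaging, EdU status from nuclear versus surrounding ring intensity ratio, PBS as neutral control.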

MDLSRPRWSLWRRVFLMASLLACGICQASGQIFITQTLGIKGYRTVVALDKVPEDVQEYSWYWGANDSAGNMIISHKPPSAQQPGPMYTGRERVNREGSLLIRPTALNDTGNYTVRVVAGNETQRATGWLEVLELGSNLGISVNASSLVENMDSVAADCLTNVTNITWYVNDVPTSSSDRMTISPDGKTLVILRVSRYDRTIQCMIESFPEIFQRSERISLTVAYGPDYVLLRSNPDDFNGIVTAEIGSQVEMECICYSFLDLKYHWIHNGSLLNFSDAKMNLSSLAWEQMGRYRCTVENPVTQLIMYMDVRIQAPHEDLTCCPQRFLHLRIHGDVPHHADSAGWRLHLWSPDPCSDQPLLNQDKSGSMSVHPRPEDKTRRASR [A8MTB9]
percentage of EdU-negative (MCF7; [1]): 28.6 ± 0.05% | percentage of EdU-negative (MCF7; protein concentration 0.225 µM): 27.4 ± 0.32% | percentage of EdU-negative (hTERT-HMEC; [1]): 4.89 ± 0.18% | percentage of EdU-negative (hTERT-HMEC; protein concentration 0.225 µM): 4.46 ± 0.032%

MIRTLLLSTLVAGALSCGVSTYAPDMSRMLGGEEARPNSWPWQVSLQYSSNGQWYHTCGGSLIANSWVLTAAHCISSSGIYRVMLGQHNLYVAESGSLAVSVSKIVVHKDWNSDQVSKGNDIALLKLANPVSLTDKIQLACLPPAGTILPNNYPCYVTGWGRLQTNGALPDDLKQGQLLVVDYATCSSSGWWGSTVKTNMICAGGDGVICTCNGDSGGPLNCQASDGRWEVHGIGSLTSVLGCNYYYKPSIFTRVSNYNDWINSVIANN
percentage of EdU-negative (MCF7; [1]): 22.3 ± 2.4% | percentage of EdU-negative (MCF7; protein concentration 0.225 µM): 26.3 ± 0.6% | percentage of EdU-negative (hTERT-HMEC; [1]): 4.64 ± 0.17% | percentage of EdU-negative (hTERT-HMEC; protein concentration 0.225 µM): 5.75 ± 0.53%

MALVRALVCCLLTAWHCRSGLGLPVAPAGGRNPPPAIGQFWHVTDLHLDPTYHITDDHTKVCASSKGANASNPGPFGDVLCDSPYQLILSAFDFIKNSGQEASFMIWTGDSPPHVPVPELSTDTVINVITNMTTTIQSLFPNLQVFPALGNHDYWPQDQLPVVTSKVYNAVANLWKPWLDEEAISTLRKGGFYSQKVTTNPNLRIISLNTNLYYGPNIMTLNKTDPANQFEWLESTLNNSQQNKEKVYIIAHVPVGYLPSSQNITAMREYYNEKLIDIFQKYSDVIAGQFYGHTHRDSIMVLSDKKGSPVNSLFVAPAVTPVKSVLEKQTNNPGIRLFQYDPRDYKLLDMLQYYLNLTEANLKGESIWKLEYILTQTYDIEDLQPESLYGLAKQFTILDSKQFIKYYNYFFVSYDSSVTCDKTCKAFQICAIMNLDNISYADCLKQLYIKHNY
percentage of EdU-negative (MCF7; [2]): 26.4 ± 2.1% | percentage of EdU-negative (MCF7; [3]): 28.3 ± 3.7% | percentage of EdU-negative (hTERT-HMEC; [2]): 4.69 ± 0.32% | percentage of EdU-negative (hTERT-HMEC; [3]): 15.5 ± 1.9%

MRWRTILLQYCFLLITCLLTALEAVPIDIDKTKVQNIHPVESAKIEPPDTGLYYDEYLKQVIDVLETDKHFREKLQKADIEEIKSGRLSKELDLVSHHVRTKLDELKRQEVGRLRMLIKAKLDSLQDIGMDHQALLKQFDHLNHLNPDKFESTDLDMLIKAATSDLEHYDKTRHEEFKKYEMMKEHERREYLKTLNEEKRKEEESKFEEMKKKHENHPKVNHPGSKDQLKEVWEETDGLDPNDFDPKTFFKLHDVNSDGFLDEQELEALFTKELEKVYDPKNEEDDMVEMEEERLRMREHVMNEVDTNKDRLVTLEEFLKATEKKEFLEPDSWETLDQQQFFTEEELKEYENIIALQENELKKKADELQKQKEELQRQHDQLEAQKLEYHQVIQQMEQKKLQQGIPPSGPAGELKFEPHI
percentage of EdU-negative (MCF7; [1]): 24 ± 0.28% | percentage of EdU-negative (MCF7; protein concentration 0.225 µM): 26 ± 1.5% | percentage of EdU-negative (hTERT-HMEC; [1]): 5.36 ± 0.7% | percentage of EdU-negative (hTERT-HMEC; protein concentration 0.225 µM): 5.32 ± 1.9%

MICQKFCVVLLHWEFIYVITAFNLSYPITPWRFKLSCMPPNSTYDYFLLPAGLSKNTSNSNGHYETAVEPKFNSSGTHFSNLSKTTFHCCFRSEQDRNCSLCADNIEGKTFVSTVNSLVFQQIDANWNIQCWLKGDLKLFICYVESLFKNLFRNYNYKVHLLYVLPEVLEDSPLVPQKGSFQMVHCNCSVHECCECLVPVPTAKLNDTLLMCLKITSGGVIFQSPLMSVQPINMVKPDPPLGLHMEITDDGNLKISWSSPPLVPFPLQYQVKYSENSTTVIREADKIVSATSLLVDSILPGSSYEVQVRGKRLDGPGIWSDWSTPRVFTTQDVIYFPPKILTSVGSNVSFHCIYKKENKIVPSKEIVWWMNLAEKIPQSQYDVVSDHVSKVTFFNLNETKPRGKFTYDAVYCCNEHECHHRYAELYVIDVNINISCETDGYLTKMTCRWSTSTIQSLAESTLQLRYHRSSLYCSDIPSIHPISEPKDCYLQSDGFYECIFQPIFLLSGYTMWIRINHSLGSLDSPPTCVLPDSVVKPLPPSSVKAEITINIGLLKISWEKPVFPENNLQFQIRYGLSGKEVQWKMYEVYDAKSKSVSLPVPDLCAVYAVQVRCKRLDGLGYWSNWSNPAYTVVMDIKVPMRGPEFWRIINGDTMKKEKNVTLLWKPLMKNDSLCSVQRYVINHHTSCNGTWSEDVGNHTKFTFLWTEQAHTVTVLAINSIGASVANFNLTFSWPMSKVNIVQSLSAYPLNSSCVIVSWILSPSDYKLMYFIIEWKNLNEDGEIKWLRISSSVKKYYIHDHFIPIEKYQFSLYPIFMEGVGKPKIINSFTQDDIEKHQSDAGLYVIVPVIISSSILLLGTLLISHQRMKKLFWEDVPNPKNCSWAQGLNFQKPETFEHLFIKHTASVTCGPLLLEPETISEDISVDTSWKNKDEMMPTTVVSLLSTTDLEKGSVCISDQFNSVNFSEAEGTEVTYEDESQRQPFVKYATLISNSKPSETGEEQGLINSSVTKCFSSKNSPLKDSFSNSSWEIEAQAFFILSDQHPNIISPHLTFSEGLDELLKLEGNFPEENNDKKSIYYLGVTSIKKRESGVLLTDKSRVSCPFPAPCLFTDIRVLQDSCSHFVENNINLGTSSKKTFASYMPQFQTCSTQTHKIMENKMCDLTV
percentage of EdU-negative (MCF7; protein concentration 0.012 µM): 23.4 ± 3.1% | percentage of EdU-negative (MCF7; protein concentration 0.12 µM): 21.2 ± 0.96% | percentage of EdU-negative (hTERT-HMEC; protein concentration 0.012 µM): 5.06 ± 0.43% | percentage of EdU-negative (hTERT-HMEC; protein concentration 0.12 µM): 5.17 ± 0.64%

MMQKLLKCSRLVLALALILVLESSVQGYPTRRARYQWVRCNPDSNSANCLEEKGPMFELLPGESNKIPRLRTDLFPKTRIQDLNRIFPLSEDYSGSGFGSGSGSGSGSGSGFLTEMEQDYQLVDESDAFHDNLRSLDRNLPSDSQDLGQHGLEEDFML
percentage of EdU-negative (MCF7; [1]): 24.3 ± 3.3% | percentage of EdU-negative (MCF7; protein concentration 0.225 µM): 26 ± 1.7% | percentage of EdU-negative (hTERT-HMEC; [1]): 5.29 ± 0.12% | percentage of EdU-negative (hTERT-HMEC; protein concentration 0.225 µM): 5.72 ± 0.97%

Q8NBS9
percentage of EdU-negative (MCF7; [4]): 27.1 ± 0.28% | percentage of EdU-negative (MCF7; [5]): 27.4 ± 0.94% | percentage of EdU-negative (hTERT-HMEC; [4]): 4.77 ± 0.42% | percentage of EdU-negative (hTERT-HMEC; [5]): 8.37 ± 0.54%

MPGPWLLLALALTLNLTGVPGGRAQPEAAQQEAVTAAEHPGLDDFLRQVERLLFLRENIQRLQGDQGEHSASQIFQSDWLSKRQHPGKREEEEEEGVEEEEEEEGGAVGPHKRQHPGRREDEASWSVDVTQHKRQHPGRRSPWLAYAVPKRQHPGRRLADPKAQRSWEEEEEEEEREEDLMPEKRQHPGKRALGGPCGPQGAYGQAGLLLGLLDDLSRSQGAEEKRQHPGRRAAWVREPLEE
percentage of EdU-negative (MCF7; [6]): 23.3 ± 4.8% | percentage of EdU-negative (MCF7; [7]): 25.8 ± 1.8% | percentage of EdU-negative (hTERT-HMEC; [6]): 5.72 ± 0.18% | percentage of EdU-negative (hTERT-HMEC; [7]): 5.31 ± 0.67%
